The values below come from article PMC5241119, “Structural snapshots of Xer recombination reveal activation by synaptic complex remodeling and DNA bending”.

A word on the stoichiometry N: it is the number of molecules, sites or subunits per partner or assembly. The term Kd denotes the concentration at which binding is half-saturated.

Data set [1] has as its target Helicobacter pylori XerH recombinase, full-length wild type (Helicobacter pylori) (UniProt O25386). The experiment in a line: crystal structure; full-length wild-type XerH co-crystallised with a 30 bp difH DNA duplex (pre-cleavage synaptic complex: four XerH, two difH); protein:DNA 1.2:1; well 0.2 M NaCl, 20-25% PEG 3350; 6°C.
Data set [2] shares this target. The experiment in a line: crystal structure; XerH co-crystallised with nicked palindromic 'suicide' difHLP DNA (post-cleavage synaptic complex; two XerH and one DNA in the asymmetric unit, tetramer by crystallographic two-fold); well 0.1 M HEPES pH 7-8, 0.2 M MgCl2, 25-35% PEG 400; 6°C.
In data set [3] the target is T1, XerH (Helicobacter pylori strain 26995 (as …, UniProt O25386 1-362)).
T1 sequence: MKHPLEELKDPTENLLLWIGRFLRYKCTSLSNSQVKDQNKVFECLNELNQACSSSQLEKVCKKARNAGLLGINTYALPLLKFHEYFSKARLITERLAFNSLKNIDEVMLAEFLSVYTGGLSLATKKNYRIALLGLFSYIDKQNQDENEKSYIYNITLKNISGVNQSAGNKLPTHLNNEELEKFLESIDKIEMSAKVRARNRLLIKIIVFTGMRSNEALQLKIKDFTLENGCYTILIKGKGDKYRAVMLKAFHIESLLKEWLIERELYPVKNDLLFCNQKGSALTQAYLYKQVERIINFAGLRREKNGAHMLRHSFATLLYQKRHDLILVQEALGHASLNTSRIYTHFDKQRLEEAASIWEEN
Kind of data set: analytical SEC; no shift in retention; EMSA: 25 mM HEPES pH 7.5, 100 mM NaCl, 10 mM MgCl2, 5% glycerol, 1 mM DTT, 1 mM EDTA, 1 h at 30 C, 20 nM DNA, 0-360 nM XerH; SEC complexes prepared as for crystallization (dialysed to 25 mM Na acetate pH 5.5, 200 mM NaCl, 5% glycerol, 1 mM DTT). Conditions: protein: recombinant; tags: His6-SUMO N-terminal, removed with SenP2; blunt, self-complementary, 2 copies of one strand.

Data set [4] concerns the target T1, XerH. Kind of data set: EMSA; 10 mM Mg2+; all complex species summed; EMSA: 25 mM HEPES pH 7.5, 100 mM NaCl, 10 mM MgCl2, 5% glycerol, 1 mM DTT, 1 mM EDTA, 1 h at 30 C, 20 nM DNA, 0-360 nM XerH; SEC complexes prepared as for crystallization (dialysed to 25 mM Na acetate pH 5.5, 200 mM NaCl, 5% glycerol, 1 mM DTT). Conditions: protein: recombinant; tags: His6-SUMO N-terminal, removed with SenP2; label: 5'-32P; blunt. For orientation: In EMSA bound probe runs differently from free probe, usually more slowly.

For a further data set, the target named is XerH K290S (Helicobacter pylori strain 26995 (as …, UniProt O25386 1-362, K290S)). Kind of data set: EMSA; K290S does not affect difH binding; EMSA: 25 mM HEPES pH 7.5, 100 mM NaCl, 10 mM MgCl2, 5% glycerol, 1 mM DTT, 1 mM EDTA, 1 h at 30 C, 20 nM DNA, 0-360 nM XerH; SEC complexes prepared as for crystallization (dialysed to 25 mM Na acetate pH 5.5, 200 mM NaCl, 5% glycerol, 1 mM DTT). Conditions: protein: recombinant; tags: His6-SUMO N-terminal, removed with SenP2; label: 5'-32P; blunt.

Data set [5] addresses T1, XerH. The experiment in a line: analytical SEC; EMSA: 25 mM HEPES pH 7.5, 100 mM NaCl, 10 mM MgCl2, 5% glycerol, 1 mM DTT, 1 mM EDTA, 1 h at 30 C, 20 nM DNA, 0-360 nM XerH; SEC complexes prepared as for crystallization (dialysed to 25 mM Na acetate pH 5.5, 200 mM NaCl, 5% glycerol, 1 mM DTT). Conditions: protein: recombinant, tags: His6-SUMO N-terminal, removed with SenP2, blunt.

In data set [6] the target is T1, XerH. The experiment in a line: X-ray crystallography; 2.1 A; pre-cleavage, pH 5.5, no metal; EMSA: 25 mM HEPES pH 7.5, 100 mM NaCl, 10 mM MgCl2, 5% glycerol, 1 mM DTT, 1 mM EDTA, 1 h at 30 C, 20 nM DNA, 0-360 nM XerH; SEC complexes prepared as for crystallization (dialysed to 25 mM Na acetate pH 5.5, 200 mM NaCl, 5% glycerol, 1 mM DTT). Conditions: protein: recombinant; tags: His6-SUMO N-terminal, removed with SenP2; blunt ends, terminal G:A mismatch at strand 1 position 1 as printed; two duplexes per complex.

For “Helicobacter pylori XerH recombinase, full-length wild type (from UniProt O25386 1-362) (enzyme)”, the stoichiometry N in data set [1] and in data set [2] was 4 each time.

B1: difHRP (right-arm palindrome, 30 bp) (dsDNA)
DNA 1: AAAGTTTGAAAAGTGCACTTTTCAAACTTT
DNA 2: AAAGTTTGAAAAGTGCACTTTTCAAACTTT
As for B1, the binding result with XerH [3] was “no binding”.

B2: difHR 50 bp (right arm, left arm replaced by random) (dsDNA)
DNA 1: CATATTTTTCCTTTTAAATTCACTGCACTTTTCAAACTTTTAAATCAAAC
DNA 2: GTTTGATTTAAAAGTTTGAAAAGTGCAGTGAATTTAAAAGGAAAAATATG
B2: in the data set with XerH [4], the Kd came out at 230 nM.

B3: difH 50 bp (dsDNA)
DNA 1: TAAATTCATTTAGTTATGAAAACTGCACTTTTCAAACTTTTAAATCAAAC
DNA 2: GTTTGATTTAAAAGTTTGAAAAGTGCAGTTTTCATAACTAAATGAATTTA
For B3, the binding result with XerH K290S is “binds”. For the same molecule, in the data set with XerH [4], the Kd turned out to be 150 nM.

B4: difHLP (left-arm palindrome, 30 bp) (dsDNA)
DNA 1: TAGTTATGAAAACTGCAGTTTTCATAACTA
DNA 2: TAGTTATGAAAACTGCAGTTTTCATAACTA
As to B4, the binding result with XerH [5] (self-complementary, 2 copies of one strand) is “binds”.

B5: difH 30 bp (pre-cleavage crystal) (dsDNA)
DNA 1: GAGTTATGAAAACTGCACTTTTCAAACTTT
DNA 2: AAAGTTTGAAAAGTGCAGTTTTCATAACTA
Regarding B5, the binding result in the data set with XerH [6] is on record as “binds”.

B6: difH 30 bp (SEC) (dsDNA)
DNA 1: TAGTTATGAAAACTGCACTTTTCAAACTTT
DNA 2: AAAGTTTGAAAAGTGCAGTTTTCATAACTA
Turning to B6, the binding result in the data set with XerH [5] is given as “binds”.

B7: difHL 50 bp (left arm, right arm replaced by random) (dsDNA)
DNA 1: TAAATTCATTTAGTTATGAAAACTGCACTTAAATCAAACCATTTAAATAA
DNA 2: TTATTTAAATGGTTTGATTTAAGTGCAGTTTTCATAACTAAATGAATTTA
Turning to B7, in the data set with XerH [4], the Kd worked out at 180 nM.
